The record followed here is the supplement of paper PMC10126150.

± gives the standard deviation of the averaged measurements.
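Further: ATP exposure 15 min at 22 °C before imaging.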

The subject of the data set is ATP. The experiment in a line: switch fluorescence ratio, 500 uM ATP over buffer (Cy3 cluster intensity, sum of 5 cycles each) (fold (ratio)); higher = stronger signal-on switching upon ATP binding; sequences stand for … in TCGTCGGCAGCGTCAGATGTGTATAAGAGACAGTTTTTTTTTTTTTTTTTTTTTTTTT…TC. The note with it: aptamer strand: ATP DNA aptamer (quencher-CACCTGGGGGAGTATTGCGGAGGAAGG + anchor), 100 nM annealed; ATP concentration: 500 uM. An outline of the steps: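 Values give the fluorescence ratio for each switch-domain sequence, averaged from per-cluster ratios of summed target-cycle to summed buffer-cycle Cy3 intensity. The Cy3-labelled switching-strand clusters sat on a modified Illumina MiSeq flow-cell, were annealed to 100 nM quencher-labelled ATP aptamer, and were imaged in selection buffer, then after 15 min with 500 uM ATP at 22 °C. Five cycles ran with NaOH stripping and re-annealing between them, and clusters outside 100-1000 RFU were excluded.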
For ATGAAATAGG, the switch fluorescence ratio is 0.98 ± 0.031. For the sequence TGGTTACGGG, the switch fluorescence ratio amounted to 0.993 ± 0.012.

On to CTATATAGGT, for which the switch fluorescence ratio turned out to be 1.014 ± 0.0069. As for GGGTCGATGT, the switch fluorescence ratio is 1.02 ± 0.056. With TGCTTGTCTC, the switch fluorescence ratio was determined as 1 ± 0.013. GGGGGGCGCA: the switch fluorescence ratio amounted to 1.02 ± 0.038. As to GGAAAATAGG, the switch fluorescence ratio worked out at 0.977 ± 0.061. Next, TATTAATAGA: 0.999 ± 0.061; GGGGTACGGG: 1.05 ± 0.024; TATTGTGGAG: 0.983 ± 0.024.

Consider GCGGCTTCGG, for which the switch fluorescence ratio was 1.04 ± 0.032. Next, TGTGTCAGTG: 1.01 ± 0.081; GATCGAGGCG: 0.9569 ± 0.0055.

As for TAAGGTGGGT, the switch fluorescence ratio worked out at 1.002 ± 0.0017. In the case of ATTCACTCGG, the switch fluorescence ratio amounted to 1.38 ± 0.48.

For the sequence ATGATAAGTA, the switch fluorescence ratio was determined as 1.006 ± 0.0034. Turning to AATAGTGGTT, the switch fluorescence ratio was 1.004 ± 0.0033. For TCCATTCATA, the switch fluorescence ratio worked out at 1.01 ± 0.023. For the sequence ATACCCTAGC, the switch fluorescence ratio was 1.09 ± 0.014. CGCGGGGCGG: the switch fluorescence ratio came out at 1.02 ± 0.029. Consider ATTTAGTGGT, for which the switch fluorescence ratio came out at 1 ± 0.028. On to TGGCCTATCC, for which the switch fluorescence ratio worked out at 1.17 ± 0.04. Take GAGGACTAGG: the switch fluorescence ratio came out at 1.01 ± 0.013.

As for CTAGTAGAAG, the switch fluorescence ratio came to 1.01 ± 0.016. As for AATTTAAGGT, the switch fluorescence ratio stood at 0.977 ± 0.022. Then CTGGCATGGT, with 1 ± 0.011; and AGAGTATTTT, with 0.999 ± 0.028; and AGAGGGGTCG, with 1.02 ± 0.058. Consider GCGCTAGGCT, for which the switch fluorescence ratio worked out at 1.01 ± 0.08.

As for GAGTTTTTGG, the switch fluorescence ratio amounted to 0.973 ± 0.015. GCTTTTGCTG: the switch fluorescence ratio worked out at 0.997 ± 0.013. On to GAGAAGTTTG, for which the switch fluorescence ratio was found to be 1.01 ± 0.018. On to CTGTGGCGCT, for which the switch fluorescence ratio came out at 1.01 ± 0.019. In the case of AGAAGTGGGG, the switch fluorescence ratio stood at 0.989 ± 0.039. Next, TATATATGAC: 1.01 ± 0.022. In the case of CATGTCAAGC, the switch fluorescence ratio was 1.05 ± 0.024.

For the sequence ATCGTATTAC, the switch fluorescence ratio was 1.46 ± 0.041. Next, TGATGGGTTT: 0.971 ± 0.043. Then GGGATGAACT, with 1.01 ± 0.013; and TTTTGAGGGA, with 0.9877 ± 0.002. Next, TAATTAATAT: 1 ± 0.048; TTTTCATGGT: 1.01 ± 0.035. In the case of CTAGGAGGGA, the switch fluorescence ratio worked out at 0.98 ± 0.013. Then CAAAAATGGC, with 1.02 ± 0.011; and GGGATTAATG, with 1.01 ± 0.015; and GCCATGTTGG, with 1.004 ± 0.0033. Next, AAAAATCGAG: 1.0015 ± 0.00019; CAGGAACTTA: 0.9843 ± 0.0052; TGACGGCCTG: 1.06 ± 0.022. For the sequence TCGTTAATTT, the switch fluorescence ratio is 1.014 ± 0.0029. Next, GCAGATTAGC: 1.033 ± 0.0044; TATTGTGATA: 0.991 ± 0.039; ATCGCTATGG: 1.125 ± 0.0017. Next, GGTCGTAGGG: 1.01 ± 0.016; CCGCGGATGG: 1.25 ± 0.15; TAGGGCGAGG: 0.9899 ± 0.001. Then GACAGGTGAA, with 2.27 ± 0.041; and AGGTGTGTCT, with 1.019 ± 0.0093. For GGATATAGCC, the switch fluorescence ratio was 0.994 ± 0.013. Then AATGGTCGTG, with 0.998 ± 0.02; and TTTAGGTGGC, with 1.02 ± 0.009. Next, ACGACCGTTG: 1.02 ± 0.061; ACTCCTGTAA: 1.13 ± 0.11; TTGGGGGGTG: 1.04 ± 0.14. With AATTGGAAGT, the switch fluorescence ratio turned out to be 1.01 ± 0.04. Next, CTAGGTGTGG: 1.04 ± 0.057; AACGCATATT: 1.85 ± 0.78. Next, GTGATATCGG: 1.05 ± 0.034; TGATTAGAAG: 0.985 ± 0.034.

For ATTTGCCTGT, the switch fluorescence ratio is 0.982 ± 0.033. AGGGTATAGA: the switch fluorescence ratio was determined as 0.987 ± 0.01. On to TCAAAGTCCT, for which the switch fluorescence ratio came out at 1.01 ± 0.02. Regarding TAAAAAAAAT, the switch fluorescence ratio came out at 1.02 ± 0.033. Next, ATCCGAGGAG: 1.05 ± 0.012. Then TTGGTCAATC, with 1.04 ± 0.024. ATGGGGGCCT: the switch fluorescence ratio worked out at 1.02 ± 0.048.

With AAGGTTCTGG, the switch fluorescence ratio stood at 0.9883 ± 0.0083. Next, GCTCTATGTG: 1.01 ± 0.018; AGTGGCACGG: 1 ± 0.029; GGGGCGATTG: 1.02 ± 0.013.

Turning to TATATTCTTT, the switch fluorescence ratio was found to be 1 ± 0.023. Then ACGGGGGGCT, with 0.995 ± 0.057; and CCGGCGCGTG, with 1.06 ± 0.1; and AATAGTTCTG, with 0.951 ± 0.043.

With CCGGGAACGC, the switch fluorescence ratio is 1.29 ± 0.024. Then AGTCTGCTGT, with 0.984 ± 0.037; and CGGGATTCGT, with 1 ± 0.057; and TTAGCTACTG, with 1.03 ± 0.056. Take TATGGACA: the switch fluorescence ratio was found to be 1.05 ± 0.01. Then TTCGTTCGGG, with 0.992 ± 0.041. As for CCATGAGCAG, the switch fluorescence ratio turned out to be 2.06 ± 0.11. Then GGGATTATTT, with 0.972 ± 0.02. As to TTTATAGGAA, the switch fluorescence ratio is 1.02 ± 0.03. As to GGTAGGGCGT, the switch fluorescence ratio was determined as 1.01 ± 0.027. Next, GGGGTTATAA: 0.998 ± 0.043. Then TTCCCTTTTT, with 1.03 ± 0.019.

In the case of CCTTTTAGCA, the switch fluorescence ratio turned out to be 2.07 ± 0.12. GCTGTCTGGT: the switch fluorescence ratio turned out to be 1.0181 ± 0.00043. Turning to TTTGTCAGAC, the switch fluorescence ratio amounted to 1.03 ± 0.054. GGGGGATTTC: the switch fluorescence ratio was 1.12 ± 0.26. Then TTTGGGGCAT, with 1.032 ± 0.0027; and CGAAGCTGGT, with 1.075 ± 0.0037. Regarding AAGGGCCCGT, the switch fluorescence ratio is 1.02 ± 0.022. Then GTTATTCTCT, with 0.971 ± 0.015; and TTCTTTTTCG, with 0.973 ± 0.056.

Regarding GCAGAGGGTC, the switch fluorescence ratio amounted to 0.9998 ± 0.0066. Next, TATGCGGGGC: 1.1 ± 0.12; CGGGGAGTGG: 0.973 ± 0.032. Next, CGTTCGACTG: 0.97 ± 0.025; AGGGGGATTT: 0.999 ± 0.052.

For GGTGGTCGGG, the switch fluorescence ratio amounted to 0.982 ± 0.0053. Turning to ATTAGGGCCA, the switch fluorescence ratio is 1.007 ± 0.0078.

In the case of TGCATTGTTT, the switch fluorescence ratio is 0.999 ± 0.015. Then TCATAGACGG, with 0.987 ± 0.021; and GGTTGGGATC, with 0.9513 ± 0.0082. Then GAGTAAAATT, with 1.13 ± 0.18; and TAAAATTAGT, with 0.9938 ± 0.0073; and GCCTTCAATA, with 1.0946 ± 0.00028. With TAGTTCTTAA, the switch fluorescence ratio was 0.984 ± 0.064. Then GCACTAGACT, with 1.07 ± 0.029.
